US20130224829A1, “NOVEL LIPOXYGENASE DERIVED FROM LEMNA PAUCICOSTATA” (priority 2010, published 2013)

B1: 441LpLOX1: Position 9 product specific lipoxygenase 1 obtained from Lemna paucicostata 441 strain (SEQ ID NO: 4) (protein, listed as Lemna paucicostata)
chain: MDAFIHKVTDVFTHKEENKVAKISGTVVIVKSNVVGFNDFVDSFLDGLHELVGSGITFQLISATVGDPKNGNKGKLGKPAQLERWITTGTFLAAGDSGFKLTFEWDEQLGFPGAVIVKNNHHGEFFLKSFTLDGVPGKKTRIHFDCNSWVYPYSTYNYDRVFFANDTFLPGNMPEPLKAYRAAELANLRGDGVAPRELKEGDRIYAYDVYNDLGDPDSGEELVRPILGGSKEYPYPRRARTGRKMTKTDPKSETRLPLLFSLNVYVPRDERFGHLKMSDFLGYSLKALAQGLVPVLNEAADLTPFEFDTFQDVLNLYEGGIDLPDSPALENVRKQIPFALIKELFRSDGENLFRLPTPAVIKADKFAWRTDEEFGREMLAGVNPVCIRLLTKFPPVSSLDPNTYGDHNSTMTADQLEKNMNGLSVEEALNKKKLFILDHHDSLMPYLERINTFNKIYASRTVLLLQDDGTLKPLAIELSLPIKGQKGAVSKVYTPAEHGVEAAVWQLAKAFAAVNDSGVHQLISHWLNTHATIEPFAIALNRQLSVVHPIYKLLHPHFRDTMNINAFARQILINAGGILEMTVFPGKYALEMSSVVYKGWKLIDHALPVDLLNRGVAENDPSAPGKLRLLIEDYPYAVDGLAVWSAIEIWVKEYCAIYYPSDKILQDDTELQAWWKEVREVGHGDKKDETWWPTMKTVAELTQTCCTIIWVASALHAAVNFGQYPYAGYLPNRPTVSRRFMPEPGTPEYEELKTDPDRAFLKTITSQLQTTIGVSLIEILSRHSSDEVYLGQRISAEWTTDEKALAAFKAFGERLITIENQIIEMNHEPKLKNRNGPVKLPYTLLYPNTSDYTRVGGLTGRGIPNSVSI
B2: 441LpLOX2: Position 9 product specific lipoxygenase 2 obtained from Lemna paucicostata 441 strain (SEQ ID NO: 6) (protein, listed as Lemna paucicostata)
chain: MADFLQKVTNNLLHKAAKISGTVVLVKSNVIGFNDFGDSFLDGLHELLGSGITFQLVSATVGDPNNGNKGKLGKPALLEKWITTGTFLVAGDSGFKVNFEWDEQLGIPGAVIVKNNHHGEFFLKSFTLDGVPGPRSRIHFDCNSWVYPYSTYNYDRVFFANDTYLPGETPEPLKAYRAAELVNLRGDGVTRELKEGDRIYAYDYYNDLGDPDSGKELARPILGGSKEYPYPRRARTGRKLTKTDPKSEQRLPLVFSLNVYVPRDERFGHLKMSDFLAYSLKALAQGLVPALDAAADITPFEFDTFQDVLNLYEGGINLPTTPASENFKKQIPFPLVKELFRSDGENVFRLPTPSVIKADKFAWRTDEEFGREMLAGVNPVCIRLLTKFPPVSSLDPSIYGNQNSTMIADQLEKNMNGLSVEEALKQKKLFILDHHDSLMPYLERINTFNKIYASRTVLLLRDDGTLKPLAIELSLPIKGEKGAVSKVYTPAEHGVEGAVWQLAKAYVAVNDSGVHQLISHWLNTHATIEPFSIALNRQLSVVHPIYKLLHPHFRDTMNINAFARQILINAGGILEMTVFPGKYAMEMSSVVYKGWKLTDQALPVDLLNRGVAEKDPSSGELRLLIEDYPYAVDGLDVWNAIEEWVKEYCAIYYPSDKTLLDDTELQAWWKEVREVGHGDKKDETWWPAMETVAELTQTCCTIIWVASALHAAVNFAQYPYAGYLPNRPTISRRFMPEPGTPEYEELETDPDRAFLKTITSQLQTLIGVSLIEILSRHSSDEIYLGQRVSAEWTSDAKALAAFKAFGEKLITIENKIIQMNVDSSLKNRNGPVKVPYTFLYPNTTDYTRVGGLTGRGIPNSISI
B3: SHLpLOX: Position 9 product specific lipoxygenase obtained from Lemna paucicostata SH strain (SEQ ID NO: 2), expressed in Escherichia coli (protein, listed as Lemna paucicostata)
chain: MAGFLQKVTDNLLHKAAKISGTVVLVKSNVVGFNDFADSFLDGLHELLGSGITFQLVSATVGDPKNGNKGKLGKPALLEKWITTGTFLAAGDSGFKVNFEWDEQLGVPGAVIVKNNHHGEFFLKSLTLDGAPGPRSRIHFDCNSWVYPYSTYNYDRVFFANDTYLPGEMPEPLKAYRAAELVNLRGDGVTRELKEGDRIYAYDLYNDLGDPDSGKELARPILGGSEEYPYPRRARTGRKLTKTDPKSEQRLPLVFSLNVYVPRDERFGHLKMSDFLAYSLKALAQGLVPALDAATDITPFEFDTFQDVLNLYEGGINLPTTPALENFKKQIPFPLVKELFRSDGENLFRLPTPSVIKADKFAWRTDEEFGREMLAGVNPVCIRLLKKFPPVSSLDPSIYRNQNSTMIADQLEKNMNGLSVEEALKQKKLFILDHHDSLMPYLERINTFNKIYASRTVLLLQDDGTLKPLAIELSLPVKGEKGAVSKVYTPAEHGVEGAVWQLAKAYVAVNDSGVHQLISHWLNTHATIEPFSIALNRQLSVVHPIYKLLHPHFRDTMNINAFARQILINAGGILEMTVFPGKYAMEMSSVVYKGWKLTDQALPVDLLNRGVAEKDPSSGELRLLIEDYPYAVDGLDVWNAIEEWVKEYCAIYYPSDKTLQDDTEVQAWWKEVREVGHGDKKDETWWPAMETVAELTQTCSTIIWVASALHAAVNFAQYPYAGYLPNRPTISRRFMPEPGTPEYEELETDPDRAFLKTITSQLQTLIGVSLIEILSRHSSDEIYLGQRVSAEWTSDAKALAAFKAFGEKLITIENKIIEMNVDSSLKNRNGPVKVPYTFLYPNTTDYTRVGGLTGRGIPNSISI

Test: Lipoxygenase activity of enzyme solutions on α-linolenic acid, reverse-phase HPLC of linolenic acid hydroperoxide
Format: biochemical
Conditions: for activity of position 9-product specific lypoxygenase compared with r9-LOX1 (amount of lynolenic acid-9-hydroperoxide): HPLC comparison, FIG. 6; for position 9 product specific lypoxygenase activity (peak of linolenic acid-9-hydroxyperoxide, 21.1 min): α-linolenic acid substrate, pH7.0, 30 minutes reaction, E. coli-expressed enzyme solution
Procedure: The activity of lypoxygenase in the enzyme solutions of SHLpLOX, 441LpLOX1, 441LpLOX2 and r9-LpLOX1 which was used as a control, was determined. 25 μl of 5 mM α-lynolenic acid solution (including 0.05% Tween80), 10 μl of 0.2M phosphate Na Buffer (pH7.0), 5 μl of distilled water were added to 1.5 ml of tube, and then 10 μl of the enzyme solution was added to the tube, and allowed to react for 30 minutes. After the reaction was over, reactant was subjected to HPLC (reverse phase; Column: Capsule pack C-18 UG120 (4.6×250 mm, Shiseido), Column temperature: 40° C., Mobile phase: 50% acetnitril (0.02%TFA), Flow rate 1 ml/min, Detection: 210 nm) so as to detect the site specificity of produced lynolenic acid hydroperoxide and the production amount.
The amount of lynolenic acid-9-hydroperoxide form was compared based on the results of HPLC.

Molecule | activity of position 9-product specific lypoxygenase compared with r9-LOX1 (amount of lynolenic acid-9-hydroperoxide) | position 9 product specific lypoxygenase activity (peak of linolenic acid-9-hydroxyperoxide, 21.1 min)
B1 | far higher activity | have position 9 product specific lypoxygenase activity
B2 | – | have position 9 product specific lypoxygenase activity
B3 | far higher activity | have position 9 product specific lypoxygenase activity
